Data reported in patent US20240374685A1, “METHODS OF TREATING LOCALLY ADVANCED OR METASTATIC PANCREATIC ADENOCARCINOMA USING AXL DECOY RECEPTORS AS FIRST-LINE THERAPY” (Aravive Inc, priority 2021, published 2024).

What was measured:
[1] = tested on: metastatic pancreatic adenocarcinoma; conditions: cited from earlier work
[2] = tested on: locally advanced, recurrent, or metastatic 1L pancreatic adenocarcinoma; assay: Phase 1b study of AVB-S6-500 plus nab-paclitaxel and gemcitabine
Procedure: The AVB-S6-500 volume is adjusted according to the subject's weight and diluted prior to infusion.
On days when all three drugs are administered, the sequence of administration is AVB-S6-500 infusion first followed by at least a 30-minute observation period, then nab-paclitaxel immediately followed by gemcitabine. AVB-S6-500 (15 mg/kg) will be administered by a 1-hour IV infusion on Days 1 and 15 of each 28-day cycle. Subjects will receive premedication with anti-H1 antagonists (anti-H1) and anti-H2 antagonists (anti-H2) (steroids optional) prior to administration of AVB-S6-500 to reduce the risk and severity of infusion reactions. Nab-paclitaxel (125 mg/m2) will be administered by a 30-40-minute IV infusion on Days 1, 8, and 15 of each 28-day cycle. Immediately following nab-paclitaxel, gemcitabine (1000 mg/m2) will be administered by a 30-minute IV infusion on Days 1, 8, and 15 of each 28-day cycle. Appropriate premedication with corticosteroids, diphenhydramine, and H2 antagonists (as per institutional practice, with IV antihistamines and steroids strongly recommended) should be administered prior to administration of nab-paclitaxel and gemcitabine.
The Ph1b portion of this study is a multicenter, open-label, single treatment arm group design to evaluate the safety, tolerability, and preliminary efficacy of AVB-S6-500 in combination with nab-paclitaxel and gemcitabine in subjects with locally advanced, recurrent, or metastatic 1L pancreatic adenocarcinoma.

aggressive human cancers [3] = assay: Preclinical (nonclinical) tumor models; type: in vivo, mouse
mouse = assay: 3-month mouse toxicity study; type: in vivo
Procedure: There were no clinical observations, no changes in urinalysis parameters, no ophthalmology signs, and no macroscopic or microscopic observations of significance related to the administration of AVB-S6-500 at doses up to the NOAEL of 200 mg/kg/week.

[4] = tested on: platinum-resistant, recurrent ovarian cancer; assay: Ph1b trial in platinum-resistant, recurrent ovarian cancer; type: in vivo, human
Procedure: AVB-S6-500 was evaluated in a Ph1b trial in combination with either paclitaxel or pegylated liposomal doxorubicin in subjects with platinum-resistant, recurrent ovarian cancer. Fifty-three subjects were dosed with AVB-S6-500 at doses ranging from 10 to 20 mg/kg once every 2 weeks in combination with their physician-chosen chemotherapy. […] All infusion reactions have been Grade 1 or 2, none met serious criteria, and all resolved without sequelae.

[5] = tested on: pancreatic (PDA1-1) models; assay: Pancreatic mouse models; type: in vivo
[6] = Pharmacokinetics in the cynomolgus monkey; type: in vivo; conditions: IV
Description: The pharmacokinetics (PK) and toxicokinetics of AVB-S6-500 and pharmacodynamics (PD) of growth arrest specific-6 protein (GAS6) have been investigated in mice (intraperitoneal [IP] and intravenous [IV] routes) and monkeys (IV route) following single and repeat dosing. The PK profile of AVB-S6-500 is compatible with target-mediated drug disposition (TMDD) with 2 parallel elimination paths: normal clearance of IgG and second order that is saturable and fits the typical 2-compartment model. […] Using the TMDD model (Dirks, N. A., Clinical Pharmacokinetics, 633-659, 2010), the human dose estimated to be efficacious may range from 1 mg/kg (to ensure GAS6 levels remain at least 90% less than baseline) to 20 mg/kg (to ensure 99% abrogation of GAS6 and allowing for a 3-fold increase in GAS6 levels in patients with cancer relative to normal levels). This model was used to select first-in-human dosing, and an external validation showing good agreement between projections and clinical observations has been published (Bonifacio, L., Clinical and Translational Science, 1-8, 2019).

healthy volunteers = assay: First-in-human Phase 1 single ascending dose and repeat-dose study; type: in vivo
Procedure: Single dose cohorts of 1, 2.5, 5, and 10 mg/kg were evaluated as well as 1 RD cohort dosed with 5 mg/kg once weekly for 4 weeks.

aggressive human cancers [7] = conditions: cited from earlier work
GAS6 = target: T1, GAS6 (Homo sapiens, UniProt Q14393); assay: Binding affinity to GAS6
T1 sequence (Q14393 31-678): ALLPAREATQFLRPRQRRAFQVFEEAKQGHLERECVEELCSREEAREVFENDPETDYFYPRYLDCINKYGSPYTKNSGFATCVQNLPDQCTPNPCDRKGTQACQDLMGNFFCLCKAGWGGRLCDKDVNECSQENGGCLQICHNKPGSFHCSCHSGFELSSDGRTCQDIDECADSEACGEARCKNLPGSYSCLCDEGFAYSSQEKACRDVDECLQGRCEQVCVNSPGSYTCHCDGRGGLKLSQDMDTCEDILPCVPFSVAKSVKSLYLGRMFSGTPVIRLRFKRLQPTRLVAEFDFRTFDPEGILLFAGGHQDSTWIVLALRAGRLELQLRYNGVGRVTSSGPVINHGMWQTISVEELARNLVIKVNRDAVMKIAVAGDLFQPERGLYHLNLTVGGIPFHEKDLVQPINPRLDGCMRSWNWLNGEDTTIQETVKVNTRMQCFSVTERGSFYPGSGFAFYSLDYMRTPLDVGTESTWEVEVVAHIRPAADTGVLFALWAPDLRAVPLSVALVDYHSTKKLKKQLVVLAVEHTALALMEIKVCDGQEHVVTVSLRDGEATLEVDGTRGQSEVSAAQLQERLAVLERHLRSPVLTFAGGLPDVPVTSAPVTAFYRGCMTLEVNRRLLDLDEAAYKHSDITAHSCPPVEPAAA

monkey = assay: 3-month monkey toxicity study; type: in vivo
highly metastatic cells = assay: AXL signaled invasion and migration in vitro; type: cell-based
[8] = clinical data from prior studies of AVB-S6-500
[9] = number of the 5 subjects at 15 mg/kg, with chemotherapy

Nc1ccn([C@@H]2O[C@H](CO)[C@@H](O)C2(F)F)c(=O)n1 [gemcitabine]
OS ([1]; 861 subjects randomized): 6.7 months
Sepsis ([1]; all grades): 2%
Fatal events ([1]; in vivo): 4%
median progression-free survival ([1]; in vivo): 3.7 months
pneumonitis ([1]; in vivo): 1%
proportion of patients with SAEs ([1]; in vivo): 43%
response rate according to independent review ([1]; in vivo): 7%

AVB-S6-500: soluble AXL variant polypeptide fusion protein comprising an Fc domain, a linker, lacks a functional FN domain, SEQ ID NO: 2
patients with Grade 4 or 5 adverse effects ([2]; AVB-S6-500 related, N = 21): no patients
AEs Leading to AVB-S6-500 Treatment Discontinuation, events ([2]; N = 21): fatigue and sepsis
AVB-S6-500-Related Deaths ([2]; N = 21): no AVB-S6-500 related deaths
AEs Leading to AVB-S6-500 Treatment Discontinuation ([2]; patients (% of N = 21)): 2
AEs of Special Interest (Infusion Related Reactions) ([2]; patients (% of N = 21)): 3
Grade 3 Adverse Effects Related to AVB-S6-500 ([2]; patients (% of N = 21)): 6
effect on tumor cells in vivo (aggressive human cancers [3]; dosing 4-7 days after tumor inoculation, small tumors established in the mouse): regression of tumor cells
metastatic disease (aggressive human cancers [3]; preclinical models of aggressive human cancers): inhibiting metastatic disease
mortalities (mouse; mouse, in vivo): no mortalities
NOAEL (mouse; twice-weekly slow bolus IV infusion): 200 mg/kg/week
no-observed-adverse-effect-level (NOAEL) (mouse; twice-weekly slow bolus IV infusion, 25, 50, 100 mg/kg): at least 100 mg/kg/dose
dose-limiting toxicities ([4]; 10 to 20 mg/kg every 2 weeks with paclitaxel or pegylated liposomal doxorubicin, 53 subjects): No dose-limiting toxicities were observed
grade of infusion reactions ([4]; all infusion reactions): Grade 1 or 2
toxicity, anemia [4, 8]: 21%
toxicity, fatigue [4, 8]: 26%
toxicity, infusion reaction [4, 8]: 21%
toxicity, nausea [4, 8]: 13%
complete response (CR) [4, 9]: 1
partial responses (PRs) [4, 9]: 2
metastatic tumor weight and number ([5]; PDA1-1 models, combined with gemcitabine): Significant reductions
fibrosis ([5]; combined with gemcitabine): substantially decreased
survival ([5]; combined with gemcitabine): prolonged
metastasis development ([5]; monotherapy): decrease in metastasis development
clearance ([6]; doses above 5 mg/kg): lower
half-life ([6]; doses above 5 mg/kg): longer
volume of distribution ([6]; doses above 5 mg/kg): larger
clearance ([6]; doses below 5 mg/kg): high
half-life ([6]; doses below 5 mg/kg): short
maximum tolerated dose (MTD) (healthy volunteers; human, in vivo): not reached
dose related AEs or SAEs (healthy volunteers; in vivo): no dose related AEs or SAEs
tolerability (healthy volunteers; single 1, 2.5, 5, 10 mg/kg, 5 mg/kg weekly for 4 weeks, IV over 60 minutes): well tolerated at all doses
direct cytotoxicity (tumor cells): not directly cytotoxic
toxicity in pharmacology studies (aggressive human cancers [7]; mouse, in vivo): no toxicity
antitumor efficacy compared with other anti-AXL small molecules in clinical development (aggressive human cancers [7]; nonclinical models): superior antitumor efficacy
apparent affinity to GAS6 (GAS6): 93-324 femtomolar
higher affinity than wild-type (WT) AXL (GAS6): approximately 200 fold
clinical pathology changes (monkey; monkey, in vivo): non-dose-dependent clinical pathology changes seen and those were consistent with an immune response in monkeys to the human AVB-S6-500 protein
mortalities (monkey; monkey, in vivo): no mortalities
NOAEL (monkey; once-weekly 30-minute IV infusion, 50, 100, 150 mg/kg): at least 150 mg/kg/dose
AXL signaled invasion and migration (highly metastatic cells): dramatically reducing AXL signaled invasion and migration
